Data from patent publication US20210040193A1 (published 2021).

Legend:
[1] = biological target: T1, Recombinant human PD-1 (Beijing Sino Biological Inc., Catalog No. 10377-H08H) (human, UniProt Q15116 25-167); assay: ELISA; panel B
[2] = biological target: T1, Recombinant human PD-1 (Beijing Sino …); assay: ELISA; panel A

T1 sequence (Q15116 25-167): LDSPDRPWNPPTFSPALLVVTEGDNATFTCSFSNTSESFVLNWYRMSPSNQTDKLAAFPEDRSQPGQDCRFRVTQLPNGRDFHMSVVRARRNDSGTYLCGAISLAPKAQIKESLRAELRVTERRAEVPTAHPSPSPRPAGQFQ

B1: PD-1 (BJHM) monoclonal antibody (antibody, V domains shown)
VH: EVNLVESGGGLVQPGGSLRLSCAASGFTFSSYGMSWVRQAPGKGLEWVASISGGGRYTYYPDSMKGRFTISRDNSKNNLYLQMNSLRAEDTAVYYCVYEYFYTMDYWGQGTLVTVSS
VL: DIVLTQSPATLSLSPGERATLSCRASQSISNNLHWYQQKPGQAPRLLIRFASQSISGIPARFSGSGSGTDFTLTISSLEPEDFAVYFCQQSDNWPLTFGGGTKVEIK
- EC50 [1]: 0.04 nM
- EC50 [2]: 0.061 nM
